# Assay results from publication doi:10.1101/2021.12.26.474192 (bioRxiv, 2021).
# B1: psNb 2-31 (VHH)
# VHH: QVQLVESGGGLVQAGESLRLSCAASKPTFRNFAAGWFRQTPGKDREFVAVIEYDGDSAYYADSVKGRFTISRDNAKNTVYLQMNRLKPGDTAVYICAIGGNHYDPSKYYTADEYDYWGQGTQVTVSS
# B2: psNb 2-67 (VHH)
# VHH: EVQLVESGGGLVQTGGSLRLSCALSGYTFSIFPTAWFRQAPGKEREFVAGIRWNGSTRDYTEYADFVKGRFTISRDNAKNMVYLQMISLKPEDTALYYCAASDGVIDGTNANAYRYWGQGTQVTVSS
# B3: psNb 1-25 (VHH)
# VHH: HVQLVESGGGLVQAGGSLRLSCATSGRTFSTYRMSWFRQAPGKEREFVATIIWSVGSTHYADSVKGRFTISRDNAKNMVYLQMNSLKPEDTAVYYCAAQRSDSSSWGYEDDYDYWGQGTQVTVSS
# B4: psNb 1-21 (VHH)
# VHH: HVQLVESGGGLVQAGGSLRLSCAAPGRTFSTSAMGWFRQAPGKEREFVAAIDWSNTNIHYADTVKGRFTISTDTAKNTVYLQMNNLKPEDTAVYYCAQGGWGLTQPISVDYWGKGTQVTVSS
# B5: psNb 2-38 (VHH)
# VHH: QVQLVESGGGLVQAGGSLRLSCAAAARFSTSAMGWFRQAPGKEREFVAAISWSNTNTHYADTVKGRFTISADTAKETVDLQMNSLKPEDTAVYYCVQGGWGIRQPIIVDYWGKGTQVTVSS
# B6: psNb 2-45 (VHH)
# VHH: QVQLVESGGGLVQAGGSLRLSCTASGYDFSILAIAWYRQAPGKERELVAAISRVGSTDYADSVKGRFTISRDNTKNTVSLQMDSLKPEDTAVYYCNAGIPMTTVLSGLGFWGQGTQVTVSS
# B7: psNb 1-23 (VHH)
# VHH: QVQLVESGGGLVQAGGSLRLSCAASGRTDSISDMGWFRQAPGKEREFVAVVGWSGGGTDYAHSVKGRFTISRDNAKNTVYLQMNSLKPEDTAVYYCAVGSLRVGSFSVEYWGQGTQVTVSS
# B8: psNb 2-65 (VHH)
# VHH: HVQLVESGGGLVQAGGSLRLSCAASGTISTLNAMGWYRQAPGKQRELLASISNLGTTYHADSVAGRFTISRGSAKNTVNLQMNSLKPDDTAVYYCNTRVLEGGTQIRDYWGQGTQVTVSS
# B9: psNb 1-22 (VHH)
# VHH: HVQLVESGGGLVQPGGSLRLSCAASGRSFNSYLMGWFRQAPGKEREFVAWISGSPHDIIRYRDSVKDRFTISRDNAKNTVYLQMNSLKPVDTAVYYCAVGSLRVGSFSPDYWGQGTQVTVSS
# B10: psNb 2-57 (VHH)
# VHH: QVQLVESGGGLVQAGGSLRLSCAVSGRTISTFGMGWFRQAPGKEREFVATITRDEDMLLYADSVKGRFTISRDTAKNMVFLQMNSLKIEDTALYYCAVRRDSSWGYSRQSTEYDYWGQGTQVTVSS
# B11: psNb 2-34 (VHH)
# VHH: HVQLVESGGGLVQAGGSLRLSCAASGRTFSRYAAGWFRQAPGKEREFVAVIEWDGDSAYYADPVKGRFTISRDNAKNTVYLQMNRLKPEDTAVYICAVGGNHYSRSKYYNLDEYDDWGQGTQVTVSS
# Molecular target: T1, SARS-CoV-2 spike HexaPro (S) (SARS-CoV-2, Wuhan-Hu-1, UniProt P0DTC2, stabilised)
# Experiment: ELISA
row,Binder,binding result
1,B1,binds
2,B2,binds
3,B3,binds
4,B4,binds

# Molecular target: T1, SARS-CoV-2 spike HexaPro (S)
# Experiment: cryo-EM structure
row,Binder,binding result
1,B5,binds
2,B6,binds
3,B7,binds
4,B8,binds
5,B9,binds
6,B10,binds
7,B11,binds
